{"source": "patent US20100293752A1", "key": {"[1]": {"biological_target": "CFP from CFP-empty plasmid (pECFP)", "experiment": "FRET by acceptor photobleaching, negative control: cotransfection of CFP- and YFP-empty plasmids"}, "[2]": {"biological_target": "CFP-tagged CD44 (human full length CD44s cDNA fused in frame into pECFP, expressed in MDA-MB231 cells) (human) (UniProt P16070)", "experiment": "FRET by acceptor photobleaching, confocal microscopy, MDA-MB231 cells coexpressing CFP-CD44 and YFP-OPN"}, "[3]": {"biological_target": "CFP-tagged CD44 (human full length CD44s cDNA fused in frame into pECFP, expressed in MDA-MB231 cells) (human) (UniProt P16070)", "experiment": "FRET by acceptor photobleaching in MDA-MB231 cells, in the presence of blocking antibody to αvβ3 integrin"}, "[4]": {"biological_target": "CFP-tagged CD44 (human full length CD44s cDNA fused in frame into pECFP, expressed in MDA-MB231 cells) (human) (UniProt P16070)", "experiment": "FRET by acceptor photobleaching in MDA-MB231 cells, in the presence of the mutated OPN-R3 RNA aptamer (control)"}}}
{"substance": "YFP from YFP-empty plasmid (pEYFP)", "values": [{"measurement": "FRET efficiency", "setting": "[1]", "result": 0.23, "unit": "%"}]}
{"substance": "YFP-tagged OPN (human OPN-a cDNA fused in frame into pEYFP, expressed in MDA-MB231 cells) (from UniProt P10451 1-314) (ligand)", "values": [{"measurement": "FRET efficiency", "setting": "[2]", "result": 24.2, "unit": "%"}, {"measurement": "FRET efficiency", "setting": "[3]", "result": 19.6, "unit": "%"}, {"measurement": "FRET efficiency", "setting": "[4]", "result": 23.1, "unit": "%"}]}
